# Columns and labels:
# HLA-A*24:02 = experiment: IEDB peptide-MHC binding, purified MHC/direct/fluorescence; filed as Kd, often an IC50 or EC50 that approximates it; ≥ and ≤ were set here for values at or beyond the usual limits of such assays
# HLA-A*02:01 [1] = experiment: IEDB peptide-MHC binding, purified MHC/competitive/radioactivity; ≥ and ≤ were set here for values at or beyond the usual limits of such assays
# HLA-A*01:01 [2] = experiment: IEDB peptide-MHC binding, purified MHC/competitive/fluorescence; ≥ and ≤ were set here for values at or beyond the usual limits of such assays
# HLA-A*02:01 [3] = experiment: as above
# HLA-A*24:03 [4] = experiment: IEDB peptide-MHC binding, purified MHC/competitive/fluorescence; filed as Kd, often an IC50 or EC50 that approximates it; ≥ and ≤ were set here for values at or beyond the usual limits of such assays; conditions: source organism: Escherichia coli str. K-12 substr. MG1655
# HLA-B*58:01 [5] = experiment: as above; conditions: source organism: Shigella boydii CDC 3083-94
# HLA-B*35:01 [6] = experiment: as above; conditions: source organism: Shigella boydii CDC 3083-94
# HLA-B*08:01 = experiment: IEDB peptide-MHC binding, purified MHC/direct/fluorescence; filed as Kd, often an IC50 or EC50 that approximates it; ≥ and ≤ were set here for values at or beyond the usual limits of such assays
# HLA-B*58:01 [7] = experiment: as above
# HLA-B*40:01 = experiment: as above
# HLA-B*35:01 [8] = experiment: as above; conditions: source organism: Rickettsia prowazekii
# HLA-A*01:01 [9] = experiment: as above
# HLA-A*69:01 = experiment: as above
# HLA-B*27:05 = experiment: as above
# HLA-B*15:01 [10] = experiment: as above
# HLA-A*26:01 = experiment: as above
# HLA-B*44:02 = experiment: as above
# HLA-A*02:01 [11] = experiment: as above
# HLA-B*07:02 = experiment: as above
# HLA-A*31:01 = experiment: as above
# HLA-A*03:01 = experiment: as above
# HLA-A*24:03 [12] = experiment: as above; conditions: source organism: Rickettsia prowazekii
# HLA-A*11:01 = experiment: as above
# HLA-B*46:01 = experiment: as above
# HLA-B*18:01 = experiment: as above
# HLA-B*15:09 = experiment: as above; conditions: source organism: Influenza A virus(A/swine/Henan/8/2004(H9N2))
# HLA-B*15:01 [13] = experiment: IEDB peptide-MHC binding, purified MHC/competitive/fluorescence; ≥ and ≤ were set here for values at or beyond the usual limits of such assays; conditions: source organism: Vaccinia virus
# HLA-B*48:01 = experiment: IEDB peptide-MHC binding, purified MHC/competitive/fluorescence; filed as Kd, often an IC50 or EC50 that approximates it; ≥ and ≤ were set here for values at or beyond the usual limits of such assays; conditions: source organism: Burkholderia mallei SAVP1
# HLA-B*08:02 = experiment: IEDB peptide-MHC binding, purified MHC/direct/fluorescence; filed as Kd, often an IC50 or EC50 that approximates it; ≥ and ≤ were set here for values at or beyond the usual limits of such assays; conditions: source organism: Influenza A virus H3N2
# [14] = source organism: Rickettsia prowazekii
# [15] = source organism: Zaire ebolavirus
# [16] = source organism: Influenza A virus (A/duck/Korea/S10/03(H3N2))
# [17] = source organism: Influenza A virus (A/South Carolina/1/1918(H1N1))
sequence,measurement,setting,value
DYLTTYFTW,Kd,HLA-A*24:02; source organism: Bacillus anthracis str. A0488,≤ 0.001 µM
FLPADFFPSV,IC50,HLA-A*02:01 [1]; source organism: Hepatitis B virus,0.0012 µM
ITDFHERPV,IC50,HLA-A*01:01 [2]; source organism: Variola virus,6.25 µM
same,IC50,HLA-A*02:01 [3]; source organism: Variola virus,5.75 µM
IWIKLSYLW,Kd,HLA-A*24:02; source organism: Cryptosporidium parvum Iowa II,0.01 µM
IYPGVNHGF,Kd,HLA-A*24:03 [4],0.0003 µM
KAWSEGLAM,Kd,HLA-B*58:01 [5],0.458 µM
same,Kd,HLA-B*35:01 [6],0.0002 µM
NLKLYGAEF,Kd,HLA-B*08:01; [14],0.433 µM
same,Kd,HLA-B*58:01 [7]; [14],≥ 20 µM
same,Kd,HLA-B*40:01; [14],≥ 20 µM
same,Kd,HLA-B*35:01 [8],0.281 µM
same,Kd,HLA-A*01:01 [9]; [14],≥ 20 µM
same,Kd,HLA-A*69:01; [14],≥ 20 µM
same,Kd,HLA-B*27:05; [14],≥ 20 µM
same,Kd,HLA-B*15:01 [10]; [14],0.133 µM
same,Kd,HLA-A*26:01; [14],≥ 20 µM
same,Kd,HLA-B*44:02; [14],≥ 20 µM
same,Kd,HLA-A*02:01 [11]; [14],≥ 20 µM
same,Kd,HLA-B*07:02; [14],≥ 20 µM
same,Kd,HLA-A*31:01; [14],≥ 20 µM
same,Kd,HLA-A*03:01; [14],≥ 20 µM
same,Kd,HLA-A*24:03 [12],11.6 µM
same,Kd,HLA-A*11:01; [14],≥ 20 µM
NTSKSTDFL,IC50,HLA-A*01:01 [2]; [15],≥ 191 µM
same,IC50,HLA-A*02:01 [3]; [15],≥ 495 µM
PAHKSQLVW,Kd,HLA-B*46:01; [16],≥ 20 µM
same,Kd,HLA-B*08:01; [16],≥ 20 µM
same,Kd,HLA-B*58:01 [7]; [16],2.21 µM
same,Kd,HLA-B*18:01; [16],≥ 20 µM
same,Kd,HLA-B*40:01; [16],≥ 20 µM
same,Kd,HLA-A*24:02; [16],≥ 20 µM
same,Kd,HLA-A*01:01 [9]; [16],≥ 20 µM
same,Kd,HLA-A*69:01; [16],≥ 20 µM
same,Kd,HLA-B*15:09,≥ 20 µM
same,Kd,HLA-B*27:05; [16],≥ 20 µM
same,Kd,HLA-B*15:01 [10]; [16],≥ 20 µM
same,Kd,HLA-A*26:01; source organism: Influenza A virus(A/swine/Henan/8/2004(H9N2)),≥ 20 µM
same,Kd,HLA-B*44:02; [16],≥ 20 µM
same,Kd,HLA-A*02:01 [11]; [16],≥ 20 µM
same,Kd,HLA-B*07:02; [16],≥ 20 µM
same,Kd,HLA-A*31:01; [16],≥ 20 µM
same,Kd,HLA-A*03:01; [16],≥ 20 µM
same,Kd,HLA-A*11:01; [16],≥ 20 µM
PSIATNLEY,IC50,HLA-A*01:01 [2]; source organism: Vaccinia virus,15.2 µM
same,IC50,HLA-B*15:01 [13],43.7 µM
PTLDKVLEL,IC50,HLA-A*02:01 [1]; source organism: Homo sapiens,10 µM
RALAYDPAL,Kd,HLA-B*48:01,0.0808 µM
RLFFKCIYR,Kd,HLA-B*46:01; [17],≥ 20 µM
same,Kd,HLA-B*08:01; [17],≥ 20 µM
same,Kd,HLA-B*58:01 [7]; [17],≥ 20 µM
same,Kd,HLA-B*18:01; [17],≥ 20 µM
same,Kd,HLA-B*40:01; [17],≥ 20 µM
same,Kd,HLA-A*24:02; [17],≥ 20 µM
same,Kd,HLA-A*01:01 [9]; [17],≥ 20 µM
same,Kd,HLA-B*27:05; [17],≥ 20 µM
same,Kd,HLA-B*15:01 [10]; [17],≥ 20 µM
same,Kd,HLA-B*08:02,≥ 20 µM
same,Kd,HLA-B*44:02; [17],≥ 20 µM
same,Kd,HLA-A*02:01 [11]; [17],≥ 20 µM
same,Kd,HLA-B*07:02; [17],≥ 20 µM
same,Kd,HLA-A*03:01; source organism: Influenza A virus (A/Puerto Rico/8/34/Mount Sinai(H1N1)),0.146 µM
